Results from the supplement of paper PMC7877785.
± gives the uncertainty stated by the source.

Experiment: self-splicing fitness, log relative to wild type (ln ratio); higher = more splicing; Tetrahymena group I intron in knt gene, E. coli kanamycin selection, DiMSum; sequences stand for … in CUCUCU…GGAGGGAAAAGUUAUCAGGCAUGCACCUGGUAGCUAGUCUUUAAACCAAUAGAUUGCAUCGGUUUAAAAGGCAAGACCGUCAAAUUGCGGGAAAGGGGUCAACAGCCGUUCAGUACCAAGUCUCAGGGGAAACUUUGAGAUGGCCUUGCAAAGGGUAUGGUAAUAAGCUGACGGACAUGGUCCUAACCACGCAGCCAAGUCCUAAGUCAACAGAUCUUCUGUUGAUAUGGAUGCAGUUCACAGACUAAAUGUCGGUCGGGGAAGAUGUAUUCUUCUCAUAAGAUAUAGUCGGACCUCUCCUUAAUGGGAGCUAGCGGAUGAAGUGAUGCAACACUGGAGCCGCUGGGAACUAAUUUGUAUGCGAAAGUAUAUUGAUUAGUUUUGGAGUACUCGUGGUCG
Outline: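 Six replicate transformations of E. coli BL21(DE3) with a pET-22b(+) library were grown overnight at 37°C or 30°C. The library randomised all eight P1ex-region intron nucleotides, the intron lying in the knt kanamycin-resistance gene, and plates were LB agar with or without 25 μg/mL kanamycin plus 100 μg/mL carbenicillin, 50 μM IPTG and 0.2% rhamnose. Pooled colonies were amplicon-sequenced on an Illumina HiSeq 2500, and fitness is the DiMSum error-weighted combination of wild-type-normalised replicate fold changes, kanamycin versus none.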

| Sequence | self-splicing fitness (ln) (30 °C) | self-splicing fitness (ln) (37 °C) |
| --- | --- | --- |
| UCUCAGCAAUAUUACGAGAA | -2.45 ± 0.29 | -0.803 ± 0.2 |
| UCUCAGCAAUAUUACGCAAA | -3.55 ± 0.4 | -1.59 ± 0.21 |
| UCUCAGCAAUAUUACGCAAC | -4.04 ± 0.39 |  |
| UCUCAGCAAUAUUACGCACA | -1.72 ± 0.19 | -0.264 ± 0.15 |
| UCUCAGCAAUAUUACGCAUU | -0.39 ± 0.11 | -1.55 ± 0.15 |
| UCUCAGCAAUAUUACGCCGA |  | -0.855 ± 0.18 |
| UCUCAGCAAUAUUACGCCGU | -2.55 ± 0.25 | -1.56 ± 0.22 |
| UCUCAGCAAUAUUACGCCUA | -2.3 ± 0.19 | -1.22 ± 0.2 |
| UCUCAGCAAUAUUACGCGAG | -3.73 ± 0.37 | -0.582 ± 0.15 |
| UCUCAGCAAUAUUACGCGCA | -0.638 ± 0.16 | -0.617 ± 0.18 |
| UCUCAGCAAUAUUACGCUAC | -3.11 ± 0.35 | -2.14 ± 0.41 |
| UCUCAGCAAUAUUACGCUGA | -2.7 ± 0.25 | -3.19 ± 0.4 |
| UCUCAGCAAUAUUACGCUUA | -2.42 ± 0.31 | -2.93 ± 0.24 |
| UCUCAGCAAUAUUACGGAGC | -2.1 ± 0.47 | -2.27 ± 0.47 |
| UCUCAGCAAUAUUACGGCAC | -2.33 ± 0.24 | -1.79 ± 0.38 |
| UCUCAGCAAUAUUACGGGCU | -1.77 ± 0.18 | -2.43 ± 0.44 |
| UCUCAGCAAUAUUACGGGGU | -4.46 ± 0.37 | -2.8 ± 0.25 |
| UCUCAGCAAUAUUACGGGUC | -4.37 ± 0.34 | -1.52 ± 0.16 |
| UCUCAGCAAUAUUACGGUCG | -1.96 ± 0.15 | -0.825 ± 0.14 |
| UCUCAGCAAUAUUACGGUGU | -2.03 ± 0.086 | -1 ± 0.097 |
| UCUCAGCAAUAUUACGGUUG | -3.46 ± 0.17 | -2.41 ± 0.21 |
| UCUCAGCAAUAUUACGUACC | -3.25 ± 0.46 | -1.69 ± 0.25 |
| UCUCAGCAAUAUUACGUGCG | -3 ± 0.22 | -1.44 ± 0.18 |
| UCUCAGCAAUAUUACGUGGG | -3.43 ± 0.25 | -2.48 ± 0.21 |
| UCUCAGCAAUAUUACGUGUA | -1.47 ± 0.089 | -0.902 ± 0.08 |
| UCUGAGCAAUAUUACGACUG | -3.15 ± 0.27 | -2.26 ± 0.28 |

| Sequence | self-splicing fitness (ln) (30 °C) | self-splicing fitness (ln) (37 °C) |
| --- | --- | --- |
| UCUGAGCAAUAUUACGAGGC | -2.78 ± 0.35 | -2.39 ± 0.26 |
| UCUGAGCAAUAUUACGAUCA | -3.84 ± 0.4 | -2.38 ± 0.36 |
| UCUGAGCAAUAUUACGAUGA | -0.887 ± 0.12 | 0.0454 ± 0.18 |
| UCUGAGCAAUAUUACGCAGG | -2.76 ± 0.32 | -1.29 ± 0.21 |
| UCUGAGCAAUAUUACGCGAU | -3.14 ± 0.27 | -3.02 ± 0.25 |
| UCUGAGCAAUAUUACGCUCA | -2.29 ± 0.24 | -2.09 ± 0.28 |
| UCUGAGCAAUAUUACGCUUU | -3.64 ± 0.23 | -3.19 ± 0.19 |
| UCUGAGCAAUAUUACGGAUA | -3.08 ± 0.47 | -1.57 ± 0.25 |
| UCUGAGCAAUAUUACGGCAA | -2.44 ± 0.4 | -1.8 ± 0.35 |
| UCUGAGCAAUAUUACGGCCU | -3.3 ± 0.29 | -1.6 ± 0.3 |
| UCUGAGCAAUAUUACGGGAA |  | -1.82 ± 0.33 |
| UCUGAGCAAUAUUACGUACU | -2.66 ± 0.34 | -2.72 ± 0.48 |
| UCUGAGCAAUAUUACGUCUU | -2.36 ± 0.21 | -2.9 ± 0.24 |
| UCUUAGCAAUAUUACGAUAC |  | -3.06 ± 0.34 |
| UCUUAGCAAUAUUACGAUUA | -2.37 ± 0.24 | -1.34 ± 0.2 |
| UCUUAGCAAUAUUACGCCAU | -2.69 ± 0.3 | -2.26 ± 0.42 |
| UCUUAGCAAUAUUACGCCCA |  | -0.128 ± 0.47 |
| UCUUAGCAAUAUUACGCCUG | -2.25 ± 0.24 | -1.51 ± 0.27 |
| UCUUAGCAAUAUUACGCGUG | -3.05 ± 0.18 | -2.21 ± 0.15 |
| UCUUAGCAAUAUUACGCUCG | -0.481 ± 0.25 | -1.43 ± 0.44 |
| UCUUAGCAAUAUUACGCUGG | -2.64 ± 0.24 | -1.64 ± 0.23 |
| UCUUAGCAAUAUUACGGACG | -2.42 ± 0.3 |  |
| UCUUAGCAAUAUUACGGACU | -2.76 ± 0.34 | -0.0771 ± 0.26 |
| UCUUAGCAAUAUUACGGCGU | -0.535 ± 0.15 | -1.19 ± 0.2 |
| UCUUAGCAAUAUUACGGGCG | -1.5 ± 0.14 | -0.448 ± 0.17 |
| UCUUAGCAAUAUUACGGGUU | -2.2 ± 0.15 | -1.61 ± 0.18 |

| Sequence | self-splicing fitness (ln) (30 °C) | self-splicing fitness (ln) (37 °C) |
| --- | --- | --- |
| UCUUAGCAAUAUUACGUCUA | -3.59 ± 0.31 | -2.19 ± 0.2 |
| UCUUAGCAAUAUUACGUGCA | -1.95 ± 0.12 | -1.07 ± 0.095 |
| UCUUAGCAAUAUUACGUUGG | -2.76 ± 0.18 | -2.65 ± 0.19 |
| UCUUAGCAAUAUUACGUUUC | -3.68 ± 0.24 | -2.8 ± 0.29 |
| UGAAAGCAAUAUUACGAAGU | -3.76 ± 0.21 | -2.96 ± 0.23 |
| UGAAAGCAAUAUUACGAAUA | -0.955 ± 0.098 | -0.396 ± 0.12 |
| UGAAAGCAAUAUUACGACCA | -0.558 ± 0.11 | 0.362 ± 0.14 |
| UGAAAGCAAUAUUACGACGU | -1.06 ± 0.065 | -0.131 ± 0.084 |
| UGAAAGCAAUAUUACGAUGC |  | -2.83 ± 0.41 |
| UGAAAGCAAUAUUACGCAAA | -2.12 ± 0.11 | -0.812 ± 0.11 |
| UGAAAGCAAUAUUACGCAGC |  | -1.62 ± 0.22 |
| UGAAAGCAAUAUUACGCAUA | -1.31 ± 0.098 | -0.274 ± 0.11 |
| UGAAAGCAAUAUUACGCCCC | -1.35 ± 0.43 | 0.00457 ± 0.49 |
| UGAAAGCAAUAUUACGCUAC | -3.01 ± 0.28 | -1.75 ± 0.33 |
| UGAAAGCAAUAUUACGCUAU | -3.32 ± 0.23 | -1.54 ± 0.17 |
| UGAAAGCAAUAUUACGCUCA | -1 ± 0.19 | -0.0203 ± 0.25 |
| UGAAAGCAAUAUUACGCUGU | -3.67 ± 0.19 | -1.73 ± 0.17 |
| UGAAAGCAAUAUUACGCUUG | -1.8 ± 0.11 | -1.32 ± 0.13 |
| UGAAAGCAAUAUUACGGACC | -0.608 ± 0.13 | -0.126 ± 0.16 |
| UGAAAGCAAUAUUACGGAUG | -1.05 ± 0.09 | -0.581 ± 0.11 |
| UGAAAGCAAUAUUACGGCCC | -0.866 ± 0.26 | 0.448 ± 0.4 |
| UGAAAGCAAUAUUACGGGAC | -3.12 ± 0.24 | -2.31 ± 0.21 |
| UGAAAGCAAUAUUACGGUGA | -1.27 ± 0.11 | -1.04 ± 0.14 |
| UGAAAGCAAUAUUACGGUGU | -3.55 ± 0.18 | -2.02 ± 0.22 |
| UGAAAGCAAUAUUACGUCGC | -3.49 ± 0.23 | -2.98 ± 0.32 |
